This data set deals with the molecule itself. The experiment in a line: cryo-EM structure.

B1: K2P13.1EM (human K2P13.1 (THIK-1) residues 1-350, N59Q/N65Q) (domain or fragment, UniProt Q9HB14 1-350, looked up)
chain: MAGRGFSWGPGHLNEDNARFLLLAALIVLYLLGGAAVFSALELAHERQAKQRWEERLAQFSRGHQLSRDELRGFLRHYEEATRAGIRVDNVRPRWDFTGAFYFVGTVVSTIGFGMTTPATVGGKIFLIFYGLVGCSSTILFFNLFLERLITIIAYIMKSCHQRQLRRRGALPQESLKDAGQCEVDSLAGWKPSVYYVMLILCTASILISCCASAMYTPIEGWSYFDSLYFCFVAFSTIGFGDLVSSQNAHYESQGLYRFANFVFILMGVCCIYSLFNVISILIKQSLNWILRKMDSGCCPQCQRGLLRSRRNVVMPGSVRNRCNISIETDGVAESDTDGRRLSGEMISMK
Turning to B1, the stoichiometry N (in general, a count of units in the complex or per binding partner) was 2.

B2: K2P13.1EM S136P/Y273A (domain or fragment, human, UniProt Q9HB14 1-350, looked up)
chain: MAGRGFSWGPGHLNEDNARFLLLAALIVLYLLGGAAVFSALELAHERQAKQRWEERLAQFSRGHQLSRDELRGFLRHYEEATRAGIRVDNVRPRWDFTGAFYFVGTVVSTIGFGMTTPATVGGKIFLIFYGLVGCPSTILFFNLFLERLITIIAYIMKSCHQRQLRRRGALPQESLKDAGQCEVDSLAGWKPSVYYVMLILCTASILISCCASAMYTPIEGWSYFDSLYFCFVAFSTIGFGDLVSSQNAHYESQGLYRFANFVFILMGVCCIASLFNVISILIKQSLNWILRKMDSGCCPQCQRGLLRSRRNVVMPGSVRNRCNISIETDGVAESDTDGRRLSGEMISMK
As to B2, the binding result is “binds”.
